According to paper PMC6748613:

Legend:
Assay in all cases: AUC
[1] = target: bH1 Fab variant W^H33-D^H98-G^H99-S^L30b
[2] = target: bH1 Fab variant W^H33-M^H98-D^H99-R^L30b
[3] = target: bH1 Fab variant W^H33-W^H98-D^H99-R^L30b
[4] = target: bH1 Fab variant W^H33-W^H98-G^H99-S^L30b
[5] = target: bH1 Fab variant Y^H33-D^H98-G^H99-R^L30b
[6] = target: bH1 Fab variant Y^H33-F^H98-G^H99-S^L30b
[7] = target: bH1 Fab variant Y^H33-M^H98-G^H99-S^L30b
[8] = target: bH1 Fab variant Y^H33-M^H98-M^H99-S^L30b
[9] = target: bH1 Fab variant Y^H33-W^H98-G^H99-S^L30b

Substance: bH1 Fab variant W^H33-D^H98-G^H99-S^L30b
- Kd [1]: 1470 mM
- dimer % at 1 mg/mL [1]: 1.2%

Substance: bH1 Fab variant W^H33-M^H98-D^H99-R^L30b
- Kd [2]: 3.98 mM

Substance: bH1 Fab variant W^H33-W^H98-D^H99-R^L30b
- Kd [3]: 1.33 mM
- dimer % at 1 mg/mL [3]: 1.2%

Substance: bH1 Fab variant W^H33-W^H98-G^H99-S^L30b
- Kd [4]: 2.68 mM
- dimer % at 1 mg/mL [4]: 1.4%

Substance: bH1 Fab variant Y^H33-D^H98-G^H99-R^L30b
- Kd [5]: 8.94 mM

Substance: bH1 Fab variant Y^H33-F^H98-G^H99-S^L30b
- Kd [6]: 1.29 mM
- dimer % at 1 mg/mL [6]: 1%

Substance: bH1 Fab variant Y^H33-M^H98-G^H99-S^L30b
- Kd [7]: 179 mM
- dimer % at 1 mg/mL [7]: 1.4%

Substance: bH1 Fab variant Y^H33-M^H98-M^H99-S^L30b
- Kd [8]: 19.9 mM

Substance: bH1 Fab variant Y^H33-W^H98-G^H99-S^L30b
- Kd [9]: 5.73 mM
- dimer % at 1 mg/mL [9]: 2.8%
